This test addresses recombinant circular RABV N10-RNA complex purified from insect cells (phosphorylated) (rabies virus (RABV), UniProt Q8JXF6 1-450). Kind of test: SPR. The note with it: both partners purified.

One molecule from article PMC11599015 (Viruses, 2024) can be followed below.

recombinant circular RABV N10-RNA complex purified from insect cells (phosphorylated), sequence (Q8JXF6 whole entry, one chain of several): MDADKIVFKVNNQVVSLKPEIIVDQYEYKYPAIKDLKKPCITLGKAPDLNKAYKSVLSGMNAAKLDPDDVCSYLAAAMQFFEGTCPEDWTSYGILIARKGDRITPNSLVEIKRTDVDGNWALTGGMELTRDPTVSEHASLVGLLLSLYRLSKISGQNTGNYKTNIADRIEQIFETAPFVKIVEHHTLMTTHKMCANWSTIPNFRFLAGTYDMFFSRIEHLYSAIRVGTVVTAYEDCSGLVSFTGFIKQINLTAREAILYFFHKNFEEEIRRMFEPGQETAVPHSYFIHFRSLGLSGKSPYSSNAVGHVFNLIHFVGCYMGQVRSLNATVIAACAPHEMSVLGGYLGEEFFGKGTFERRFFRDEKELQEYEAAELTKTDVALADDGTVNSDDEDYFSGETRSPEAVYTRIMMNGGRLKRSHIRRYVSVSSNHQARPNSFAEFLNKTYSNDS

B1: C-terminal domain of RABV phosphoprotein P (PCTD) (domain or fragment)
chain: WSATNEEDDLSVEAEIAHQIAESFSKKYKFPSRSSGIFLYNFEQLKMNLDDIVKEAKNVPGVTRLAHDGSKIPLRCVLGWVALANSKKFQLLVEADKLSKIMQDDLNRYTSC
Consider B1, for which the dissociation constant (Kd) – broadly, the equilibrium constant for the complex coming apart – came to 160 ± 20 nM and the stoichiometry N (as a rule, a count of units in the complex or per binding partner) was determined as 2 ± 0.2.
